Experimental data published in patent US20240199762A1 (PHILOGEN S P A, published 2024).

How the values were obtained:
[1] = target: T1, human FAP expressed on transduced cells (SKRC52-hFAP, HT-1080-hFAP) (human, UniProt Q12884 1-760); experiment: immunofluorescence on SKRC52-hFAP tumor cryosections, FITC conjugate at 10 ug/mL
T1 construct: whole, on cells; Also the target in SKRC52-hFAP tumor cryosections and in tumors of tumor-bearing mice; also called cell-expressed human FAP
T1 sequence (looked up): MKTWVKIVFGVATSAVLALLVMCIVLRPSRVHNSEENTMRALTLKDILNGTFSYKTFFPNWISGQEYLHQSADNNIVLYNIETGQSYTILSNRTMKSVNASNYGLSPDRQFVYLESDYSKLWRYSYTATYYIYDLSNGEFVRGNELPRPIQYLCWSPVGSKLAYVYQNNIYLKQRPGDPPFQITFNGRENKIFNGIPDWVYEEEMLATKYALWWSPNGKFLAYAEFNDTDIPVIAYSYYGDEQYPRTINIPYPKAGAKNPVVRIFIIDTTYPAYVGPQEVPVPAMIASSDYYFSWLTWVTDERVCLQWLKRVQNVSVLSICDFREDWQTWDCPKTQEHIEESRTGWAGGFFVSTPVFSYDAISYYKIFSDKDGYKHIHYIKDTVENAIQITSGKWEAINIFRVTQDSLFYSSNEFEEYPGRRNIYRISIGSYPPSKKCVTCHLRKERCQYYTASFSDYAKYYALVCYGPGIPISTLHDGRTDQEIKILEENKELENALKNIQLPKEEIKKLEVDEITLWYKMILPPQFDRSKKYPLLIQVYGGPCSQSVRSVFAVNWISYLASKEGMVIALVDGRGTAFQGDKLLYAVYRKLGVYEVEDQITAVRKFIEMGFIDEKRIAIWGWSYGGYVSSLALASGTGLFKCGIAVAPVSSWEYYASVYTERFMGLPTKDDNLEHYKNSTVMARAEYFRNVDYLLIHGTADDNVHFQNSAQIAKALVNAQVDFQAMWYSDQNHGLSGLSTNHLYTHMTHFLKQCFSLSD
Procedure: Immunofluorescence experiments were performed with 7NP2 and KSF (negative control), both in IgG1 format on cryosections of renal cell carcinoma SKRC52-hFAP tumor tissue slides, which were transduced to express human FAP. The 7NP2 and KSF IgG1 molecules were conjugated to FITC to allow detection. Cryostat sections (10 μm) were stained using the 7NP2 and KSF IgG1 conjugates at a final concentration of 10 μg/mL and detected with rabbit anti-FITC and goat anti-rabbit AlexaFluor488 antibody. Slides were mounted with fluorescent mounting medium and analyzed with a microscope (FIG. 5).

[2] = target: T2, human FAP-ECD (extracellular domain) recombinant fragment containing a C-terminal His6 tag (human, UniProt Q12884 26-760, randomly biotinylated with NHS ester-activated biotin (as used on the SA chip and Streptawell plates)); experiment: epitope ELISA on biotinylated human FAP, co-incubated with C5 IgG2a, 5 ug/mL
T2 construct: also called biotinylated human FAP-ECD; biotinylated human FAP
T2 sequence: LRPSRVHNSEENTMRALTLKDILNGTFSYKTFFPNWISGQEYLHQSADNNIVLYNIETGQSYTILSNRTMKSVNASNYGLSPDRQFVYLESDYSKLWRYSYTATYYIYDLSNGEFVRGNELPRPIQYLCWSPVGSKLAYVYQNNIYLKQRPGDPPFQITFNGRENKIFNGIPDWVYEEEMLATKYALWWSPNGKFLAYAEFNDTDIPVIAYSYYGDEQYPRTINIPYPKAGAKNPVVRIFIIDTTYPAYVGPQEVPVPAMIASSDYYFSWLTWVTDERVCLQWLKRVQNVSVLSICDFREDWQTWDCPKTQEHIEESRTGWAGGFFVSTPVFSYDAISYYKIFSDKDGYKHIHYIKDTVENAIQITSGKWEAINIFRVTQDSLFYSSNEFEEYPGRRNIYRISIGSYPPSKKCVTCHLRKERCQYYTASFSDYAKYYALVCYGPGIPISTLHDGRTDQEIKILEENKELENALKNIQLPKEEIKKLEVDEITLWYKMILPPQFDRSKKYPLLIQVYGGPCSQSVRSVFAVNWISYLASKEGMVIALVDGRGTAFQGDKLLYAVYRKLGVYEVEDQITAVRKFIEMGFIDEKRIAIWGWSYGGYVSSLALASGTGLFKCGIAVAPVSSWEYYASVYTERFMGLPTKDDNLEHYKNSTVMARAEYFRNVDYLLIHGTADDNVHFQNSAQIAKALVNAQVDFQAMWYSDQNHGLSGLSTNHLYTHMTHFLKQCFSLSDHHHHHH
Procedure: To evaluate binding, 100 nM of biotinylated human FAP were coated on Streptawell plates for 30 min at 37° C.
The C5 antibody in IgG2a format was incubated together with the 7NP2 antibody in IgG1 format, the F5 antibody in IgG1 format (WO2016/116399), the ESC11 antibody in IgG1 format (Fisher et al., (2012) Clin Cancer Res; 18(22)), or the (negative control) antibody KSF in IgG1 format for 1.5 h at room temperature at a concentration of 5 μg/mL in the antigen-coated wells. After 3 washes with PBS, binding of the antibodies to human FAP was detected using anti-human or anti-murine HRP conjugates (FIG. 7).

B1: anti-FAP antibody 7NP2 in IgG1 format (antibody, V domains shown)
VH: EVQLLESGGGLVQPGGSLRLSCAASGFTFSSYAMSWVRQAPGKGLEWVSAIGSVGGPTYYADSVKGRFTISRDNSKNTLYLQMNSLRAEDTAVYYCAKRLAWFDYWGQGTLVTVSS
VL: EIVLTQSPGTLSLSPGERATLSCRASQSVSSSYLAWYQQKPGQAPRLLIYGASSRATGIPDRFSGSGSGTDFTLTISRLEPEDFAVYYCQQSGKGPLTFGQGTKVEIKR
notes: also called 7NP2 IgG1; 7NP2(IgG1)
B1: binds [1]; binds [2].
